According to PMC5573408 (2017):
No end group written: not given here. fluorescein = fluorescein, fluorescent label at the C-terminus

Key:
[1] = target: T1, Cannabinoid receptor 2 (Homo sapiens, UniProt P34972); assay: fluorescence saturation binding on CHO-K1-hCB2 cells
[2] = target: T1, Cannabinoid receptor 2; assay: radioligand binding [3H]CP55,940, ternary complex allosteric model
[3] = target: T1, Cannabinoid receptor 2; assay: fluorescent pepcan-F4 displacement on CHO-K1-hCB2 cells
[4] = target: T1, Cannabinoid receptor 2; assay: radioligand binding [3H]WIN55,212-2, ternary complex allosteric model

T1 sequence (P34972 whole entry): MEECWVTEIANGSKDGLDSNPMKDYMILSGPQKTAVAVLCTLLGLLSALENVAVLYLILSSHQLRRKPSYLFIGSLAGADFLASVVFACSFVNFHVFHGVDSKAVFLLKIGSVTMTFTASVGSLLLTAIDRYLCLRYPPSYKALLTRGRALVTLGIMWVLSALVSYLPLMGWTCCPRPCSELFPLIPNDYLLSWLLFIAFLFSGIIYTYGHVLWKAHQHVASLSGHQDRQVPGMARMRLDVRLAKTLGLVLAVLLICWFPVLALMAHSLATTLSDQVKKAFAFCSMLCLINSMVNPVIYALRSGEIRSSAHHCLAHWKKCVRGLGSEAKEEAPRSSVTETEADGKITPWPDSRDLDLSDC

B1: Pepcan-F4 (peptide)
chain: RVDPVNFKLLSH-fluorescein
B1 was tested, and the Kd [1] was 0.122 µM.

B2: Pepcan-12 (RVD-hemopressin) (peptide)
chain: RVDPVNFKLLSH
modifications: [3H]CP55,940 present
B2 gave a Kd [2] of 0.058 µM.

B3: Pepcan-12 (RVD-hemopressin) (peptide)
chain: RVDPVNFKLLSH
For B3, the Ki [3] was 0.044 µM.

B4: Pepcan-12 (RVD-hemopressin) (peptide)
chain: RVDPVNFKLLSH
modifications: [3H]WIN55,212-2 present
B4 was tested, and the Kd [4] was 0.053 µM.
